Laboratory results taken from the DeepSol protein solubility set.

Assay: soluble on expression in E. coli; label from the status in PepcDB or PDB records

Sequence	soluble on expression in E. coli
MSKFAMVFPGQGSQSLGMLADLAAQFPIVEATFSEASSVLGYDLWQLVQQGPAEELNKTWQTQPALLTASVAIWRIWQHQGGKLPSLMAGHSLGEYSALVCAGVLDFKQAVSLVELRGKLMQEAVPEGTGAMYAIIGLDNESIAKACEESAQGQVVSPVNFNSPGQVVIAGNKDAVERAGAACKAAGAKRALPLPVSVPSHCALMKPAADKLAVALEKIDFQEPLFPVVNNVDVKAEVSPVAIRSALVRQLYNPVRWTESVEFIAAEGVELLLEIGPGKVLTGLTKRIVDSLAAAAVNDVVTLNSALEH	not soluble
MKHEWRKFEKELYGVKAKPIFLEVEEQRFITIKGKGNPNDQDFSNRVSALYALAYGIKMAYKQAMKTEQDDRAVTDFAVYPLEGLWQQAKDAKEDTLEKDKLSYTIMIRQPEFITKELVDQALDRVKIKKPNSFYESISFESIKDGKCIQVLHIGSYDDEPQSFAKMDAFAKEHGLKRSSDIHREIYLSNAQRTEKSKLKTILRYQVEEK	not soluble
MGSDKIHHHHHHFDGFGAVSGGGATSKLLFTYFSEKSDRKQVLESLFNKDNGLQLLKVEMGGDDQSTEGTESSHESEKGKISKNNYEFQLISEVREINPTIPICVLPWAFPGWIGNTPYDNVTETAEYVVNWLKIGRDTWNFDTFCVGVWNERNFSESYVKELRKILNLNGFNETLIVAGEGFRMDDSYSRLLDKRFINEYDIIG	not soluble
MEAKQRIIPAIKTMKQFDAFLSSGYTVGVLLEVHIAQLKSIFAYARRHGKELIVHVDLVQGLSHDEHAAEYLCQEFRPHGLISTKAGVIMKARQKRVLAVQRIFLLDSHALEKSYQLIAKTNPDCIEVIPGAMPHIIREVKERTGKPIYAGGLIRTVDDVERALAAGAAAVTTSNETLWRHYNG	not soluble
MSLEENMEGALFLENESFCEEIPDNPNIEKEKPLEFISSGNLEIDRKLEGGIPVGSLCLLEGAKDSGKSIFMQQIMWGALNQDKKVLALTTEKTSRNLLNNMESLKQDISDYFIIGRSKIFEINASDVEENPEISENLLEIMLECIKECEEELILIDSLTILAVNASENTLLNFFRECIKLCDKKKTILISVHGYAFSQEVLYRLRSVCNSCLELRIEQVGDKLIKTMEIQKLRGAKKTTGNMLSFDVNSECGLKIIPVSKVKAEGHHHHHH	soluble
MSSYEMFADKNIVAGELANLMASAGWGTEGDYDATAIEKSLSAYPMIAYCRDSDGLLVGYISAFTDGAFSTFVGELVVRPTYQQRGIGSALLAMIVEKCRGVPVYATPFQGTEKFFLDRGFRVPERPMSVVSMRNVT	not soluble
MNRTLPLLPALALGVLLGLPASGQATCYRVTSVGSETTTSNTQIRPGEGTAGSWTGACDTCNGSLGLPSVVNVSDESFQPYPTLIASAVAPLTQYGATGGYDPERVFFRCSAGDAVYEMFSTNGDDLYSGYYTGADTVGNDIGLQDAYRTAWPNVLLRLTNVETGETITPIWKERQLSGLDIDSRGFQLVKAKNLAAVRAELYSAPLEAIRYYSPTILSQPYSYTQPAAYIAIKGPGLTAPTVGQAHVGGNWGGWYSNWPGAIGLYRYVTLKRYPTCAVMTVTPHVQFPSITLAEIDSGGVREAPFELTFKCQSGMTNGTGAGATALGIRVSSGALAASPALGLVNASGGLSYLLSDRYGEPGIARGVGIRIYRDGTPMTLLANENSAGGSNAEATGWYPAIGGATQANGGSGGIDLYRETFRARLEKLALGSQPGVTAGRVEATAQVVIRVQ	not soluble
MSLALELRQQLKLSQQLVMTPQLQQAIRLLQLSRLELVETVQQELLENPFLEEGMDEGAASSASEASSRKDESAPEAYDRELSRNADWEDYLGEFASSSRQAQVRETELPEEMTAFEARYSARPSLEGHLMWQLRLSRLTEDQKGIGETIIGNIGSSGYLQASVEDIAEMCGADASEVIPVLHAVQRFDPVGVASRTPQECLLIQIEMLGYDRDRVLVELVRDHLEDLETRRYKPLLRKFKLDMDDLKEYLDIIQSLDPMPGSSFGGSDPMFVSPDVFVYKYDDEFVIVLNDDGLPHLQLSSLYDQSLAGVTGKDKDFVQEKVRSASWLIKSLYQRQRTLYKVVESIIKYQRGFFEDGVTRLRPLILKDIADDISMHESTVSRITTNKFVATPHGVFELKFFFNSALELDDGSQVGSESVKALIKKLIGEENPKEPLSDERIGEILKEQLQVNIARRTVAKYRTAMNIPSSSKRKEVFEGHHHHHH	soluble
AESLSGLSLKLVKKEPRQLELTWAGSRPRNPGGNLSYELHVLNQDEEWHQMVLEPRVLLTKLQPDTTYIVRVRTLTPLGPGPFSPDHEFRTSPP	soluble
